Source: patent US20260184777A1 (BEIJING SUNGEN BIOMEDICAL TECHNOLOGY, published 2026)

T1: human S100A8/A9 heterodimeric antigen, His-tagged (hS100A8/A9-His) (human, UniProt P05109 1-93; P06702 1-114)
T1 sequence 1: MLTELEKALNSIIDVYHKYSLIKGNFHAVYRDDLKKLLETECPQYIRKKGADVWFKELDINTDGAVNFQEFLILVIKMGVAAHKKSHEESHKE
T1 sequence 2: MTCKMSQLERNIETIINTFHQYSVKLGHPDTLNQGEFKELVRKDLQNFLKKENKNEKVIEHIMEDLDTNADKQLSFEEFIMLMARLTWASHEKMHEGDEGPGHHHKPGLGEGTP


target: T1, human S100A8/A9 heterodimeric antigen, …; assay: cell-based or functional assay

Relative IC50 (IC50 relative to CM-1), IL-6 release from hS100A8/A9-activated human PBMCs | Binder
1.37 relative to CM-1 | CM-119 (antibody, human IgG4 S228P, lambda, V domains shown) VH: EVQLVESGGGLVQPGGSLRLSCAASGFTFSDYAMSWVRQAPGKGLEWVSAISGSGGSTYYAASVKGRFTISRDNSKNTLYLQMNSLRAEDTAVYYCARKYRPSRVFDYWGQGTLVTVSS VL: SYELTQPPSVSVAPGQTARITCSGDALGDKYASWYQQKPGQAPVLVIYEDAKRPSGIPERFSGSNSGNTATLTISGTQAEDEADYYCQSNDADAWWVFGGGTKLTVLG
1.63 relative to CM-1 | CM-118 (antibody, human IgG4 S228P, lambda, V domains shown) VH: EVQLVESGGGLVQPGGSLRLSCAASGFTFSDYAMSWVRQAPGKGLEWVSAISGSGGSTYYAASVKGRFTISRDNSKNTLYLQMNSLRAEDTAVYYCARKYRPSRVFDHWGQGTLVTVSS VL: SYELTQPPSVSVAPGQTARITCSGDALGDKYASWYQQKPGQAPVLVIYEDAKRPSGIPERFSGSNSGNTATLTISGTQAEDEADYYCQSNDADAWWVFGGGTKLTVLG

target: T1, human S100A8/A9 heterodimeric antigen, …; assay: cell-based or functional assay; remark: another data set of the same source

IC50, inhibition of IL-6 release from hS100A8/A9-activated human PBMCs [µg/mL] | Binder
0.199 | CM-2 (antibody, human IgG4 S228P, lambda, V domains shown) VH: not shown VL: SYELTQPPSVSVAPGQTARITCSGDALGDKYASWYQQKPGQAPVLVIYEDSKRPSGIPERFSGSNSGNTATLTISGTQAEDEADYYCQSNDADSVWVFGGGTKLTVLG
0.047 | CM-12 (antibody, human IgG4 S228P, lambda, V domains shown) VH: not shown VL: SYELTQPPSVSVAPGQTARITCSGDALGDKYASWYQQKPGQAPVLVIYEDSKRPSGIPERFSGSNSGNTATLTISGTQAEDEADYYCQSNDADSVWVFGGGTKLTVLG
2.79 | CM-14 (antibody, human IgG4 S228P, lambda, V domains shown) VH: not shown VL: SYELTQPPSVSVAPGQTARITCSGDALGDKYASWYQQKPGQAPVLVIYEDSKRPSGIPERFSGSNSGNTATLTISGTQAEDEADYYCQSNDADSVWVFGGGTKLTVLG
0.109 | CM-18 (antibody, human IgG4 S228P, lambda, V domains shown) VH: not shown VL: SYELTQPPSVSVAPGQTARITCSGDALGDKYASWYQQKPGQAPVLVIYEDSKRPSGIPERFSGSNSGNTATLTISGTQAEDEADYYCQSNDADSVWVFGGGTKLTVLG
0.162 | CM-22 (antibody, human IgG4 S228P, lambda, V domains shown) VH: not shown VL: SYELTQPPSVSVAPGQTARITCSGDALGDKYASWYQQKPGQAPVLVIYEDSKRPSGIPERFSGSNSGNTATLTISGTQAEDEADYYCQSNDADSVWVFGGGTKLTVLG
0.253 | CM-27 (antibody, human IgG4 S228P, lambda, V domains shown) VH: not shown VL: SYELTQPPSVSVAPGQTARITCSGDALGDKYASWYQQKPGQAPVLVIYQDSKRPSGIPERFSGSNSGNTATLTISGTQAEDEADYYCQSNDADSVWVFGGGTKLTVLG
1.74 | CM-28 (antibody, human IgG4 S228P, lambda, V domains shown) VH: not shown VL: SYELTQPPSVSVAPGQTARITCSGDALGDKYASWYQQKPGQAPVLVIYEHSKRPSGIPERFSGSNSGNTATLTISGTQAEDEADYYCQSNDADSVWVFGGGTKLTVLG
2 | CM-29 (antibody, human IgG4 S228P, lambda, V domains shown) VH: not shown VL: SYELTQPPSVSVAPGQTARITCSGDALGDKYASWYQQKPGQAPVLVIYEQSKRPSGIPERFSGSNSGNTATLTISGTQAEDEADYYCQSNDADSVWVFGGGTKLTVLG
0.024 | CM-23 (antibody, human IgG4 S228P, lambda, V domains shown) VH: not shown VL: SYELTQPPSVSVAPGQTARITCSGDALGDKYASWYQQKPGQAPVLVIYEDSKRPSGIPERFSGSNSGNTATLTISGTQAEDEADYYCQSNDADSVWVFGGGTKLTVLG
0.67 | CM-24 (antibody, human IgG4 S228P, lambda, V domains shown) VH: not shown VL: SYELTQPPSVSVAPGQTARITCSGDALGDKYASWYQQKPGQAPVLVIYEDSKRPSGIPERFSGSNSGNTATLTISGTQAEDEADYYCQSNDADSVWVFGGGTKLTVLG
0.04 | CM-4 (antibody, human IgG4 S228P, lambda, V domains shown) VH: not shown VL: SYELTQPPSVSVAPGQTARITCSGDALGDKYASWYQQKPGQAPVLVIYEDSKRPSGIPERFSGSNSGNTATLTISGTQAEDEADYYCQSNDADSVWVFGGGTKLTVLG
0.436 | CM-5 (antibody, human IgG4 S228P, lambda, V domains shown) VH: not shown VL: SYELTQPPSVSVAPGQTARITCSGDALGDKYASWYQQKPGQAPVLVIYEDSKRPSGIPERFSGSNSGNTATLTISGTQAEDEADYYCQSNDADSVWVFGGGTKLTVLG
0.477 | CM-15 (antibody, human IgG4 S228P, lambda, V domains shown) VH: not shown VL: SYELTQPPSVSVAPGQTARITCSGDALGDKYASWYQQKPGQAPVLVIYEDSKRPSGIPERFSGSNSGNTATLTISGTQAEDEADYYCQSNDADSVWVFGGGTKLTVLG
0.458 | CM-8 (antibody, human IgG4 S228P, lambda, V domains shown) VH: not shown VL: SYELTQPPSVSVAPGQTARITCSGDALGDKYASWYQQKPGQAPVLVIYEDSKRPSGIPERFSGSNSGNTATLTISGTQAEDEADYYCQSNDADSVWVFGGGTKLTVLG
1.56 | CM-9 (antibody, human IgG4 S228P, lambda, V domains shown) VH: not shown VL: SYELTQPPSVSVAPGQTARITCSGDALGDKYASWYQQKPGQAPVLVIYEDSKRPSGIPERFSGSNSGNTATLTISGTQAEDEADYYCQSNDADSVWVFGGGTKLTVLG
0.43 | CM-20 (antibody, human IgG4 S228P, lambda, V domains shown) VH: not shown VL: SYELTQPPSVSVAPGQTARITCSGDALGDKYASWYQQKPGQAPVLVIYEDSKRPSGIPERFSGSNSGNTATLTISGTQAEDEADYYCQSNDADSVWVFGGGTKLTVLG
0.168 | CM-26 (antibody, human IgG4 S228P, lambda, V domains shown) VH: not shown VL: SYELTQPPSVSVAPGQTARITCSGDALGDKFASWYQQKPGQAPVLVIYEDSKRPSGIPERFSGSNSGNTATLTISGTQAEDEADYYCQSNDADSVWVFGGGTKLTVLG
0.619 | CM-19 (antibody, human IgG4 S228P, lambda, V domains shown) VH: not shown VL: SYELTQPPSVSVAPGQTARITCSGDALGDKYASWYQQKPGQAPVLVIYEDSKRPSGIPERFSGSNSGNTATLTISGTQAEDEADYYCQSNDADSVWVFGGGTKLTVLG
0.12 | CM-7 (antibody, human IgG4 S228P, lambda, V domains shown) VH: not shown VL: SYELTQPPSVSVAPGQTARITCSGDALGDKYASWYQQKPGQAPVLVIYEDSKRPSGIPERFSGSNSGNTATLTISGTQAEDEADYYCQSNDADSVWVFGGGTKLTVLG
0.471 | CM-25 (antibody, human IgG4 S228P, lambda, V domains shown) VH: not shown VL: SYELTQPPSVSVAPGQTARITCSGDALGDKYASWYQQKPGQAPVLVIYEDSKRPSGIPERFSGSNSGNTATLTISGTQAEDEADYYCQSNDADSVWVFGGGTKLTVLG
0.01 | CM-21 (antibody, human IgG4 S228P, lambda, V domains shown) VH: not shown VL: SYELTQPPSVSVAPGQTARITCSGDALGDKYASWYQQKPGQAPVLVIYEDSKRPSGIPERFSGSNSGNTATLTISGTQAEDEADYYCQSNDADSVWVFGGGTKLTVLG
0.029 | CM-3 (antibody, human IgG4 S228P, lambda, V domains shown) VH: not shown VL: SYELTQPPSVSVAPGQTARITCSGDALGDKYASWYQQKPGQAPVLVIYEDSKRPSGIPERFSGSNSGNTATLTISGTQAEDEADYYCQSNDADSVWVFGGGTKLTVLG
0.438 | CM-10 (antibody, human IgG4 S228P, lambda, V domains shown) VH: not shown VL: SYELTQPPSVSVAPGQTARITCSGDALGDKYASWYQQKPGQAPVLVIYEDSKRPSGIPERFSGSNSGNTATLTISGTQAEDEADYYCQSNDADSVWVFGGGTKLTVLG
0.488 | CM-6 (antibody, human IgG4 S228P, lambda, V domains shown) VH: not shown VL: SYELTQPPSVSVAPGQTARITCSGDALGDKYASWYQQKPGQAPVLVIYEDSKRPSGIPERFSGSNSGNTATLTISGTQAEDEADYYCQSNDADSVWVFGGGTKLTVLG
0.038 | CM-11 (antibody, human IgG4 S228P, lambda, V domains shown) VH: not shown VL: SYELTQPPSVSVAPGQTARITCSGDALGDKYASWYQQKPGQAPVLVIYEDSKRPSGIPERFSGSNSGNTATLTISGTQAEDEADYYCQSNDADSVWVFGGGTKLTVLG
0.047 | CM-13 (antibody, human IgG4 S228P, lambda, V domains shown) VH: not shown VL: SYELTQPPSVSVAPGQTARITCSGDALGDKYASWYQQKPGQAPVLVIYEDSKRPSGIPERFSGSNSGNTATLTISGTQAEDEADYYCQSNDADSVWVFGGGTKLTVLG
0.457 | CM-16 (antibody, human IgG4 S228P, lambda, V domains shown) VH: not shown VL: SYELTQPPSVSVAPGQTARITCSGDALGDKYASWYQQKPGQAPVLVIYEDSKRPSGIPERFSGSNSGNTATLTISGTQAEDEADYYCQSNDADSVWVFGGGTKLTVLG
0.32 | CM-17 (antibody, human IgG4 S228P, lambda, V domains shown) VH: not shown VL: SYELTQPPSVSVAPGQTARITCSGDALGDKYASWYQQKPGQAPVLVIYEDSKRPSGIPERFSGSNSGNTATLTISGTQAEDEADYYCQSNDADSVWVFGGGTKLTVLG
